Laboratory results taken from the supplement of paper PMC10567573.

B1: TMEM175 (parent)
chain: SCTIIFLASIFQLAMWTTALLHQA
B2: ADD1 (parent)
chain: GEGTGSPPKWQIGEQEFEALMRML

Variants of: B1
Experiment: protein stability index of a GFP-peptide fusion (GPS, HEK-293T) (PSI 1-6); higher = more stable
Conditions: c terminus: a fixed tail appended
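Further: lentivirally expressed fusions sorted by FACS into six bins by GFP to DsRed ratio, PSI derived from sequencing read proportions per bin multiplied by bin number.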

| Variant | protein stability index |
| --- | --- |
| W16Y | 3.76 |
| W16P | 2.53 |
| W16K | 2.44 |
| S1G | 2.3 |
| S1D | 2.62 |
| S1W | 2.14 |
| S1H | 2.8 |
| T17L | 3.31 |
| T17A | 1.59 |
| T17W | 4 |
| T17V | 2.22 |
| T18C | 3.17 |
| T18L | 2.73 |
| T18I | 2.16 |
| T18A | 2.23 |
| T18P | 3.36 |
| S9E | 4.07 |
| S9P | 2.31 |
| S9Y | 2.66 |
| S9L | 3.52 |
| M15K | 2.96 |
| H22Y | 2.5 |
| H22K | 3.44 |
| H22C | 3.02 |
| L20F | 2.74 |

| Variant | protein stability index |
| --- | --- |
| L20W | 1.4 |
| L20D | 3.05 |
| L20Y | 3.22 |
| L20N | 3.09 |
| L20P | 1.81 |
| C2Y | 2.89 |
| Q23G | 4.5 |
| Q23V | 3.24 |
| L13P | 2.24 |
| L13S | 3.46 |
| L13D | 2.59 |
| L13H | 3.13 |
| I10A | 3.45 |
| I10Y | 3.52 |
| I10V | 3.47 |
| I10N | 2.59 |
| I10K | 3.74 |
| I10D | 1.94 |
| I10H | 3.64 |
| I10R | 2.81 |
| I10Q | 2.91 |
| A8F | 3.99 |
| A8D | 3.72 |
| A8Q | 3.65 |
| T3L | 2.92 |

| Variant | protein stability index |
| --- | --- |
| T3A | 3.36 |
| T3M | 2.56 |
| T3E | 1.72 |
| T3D | 2.86 |
| T3S | 2.57 |
| Q12I | 3.51 |
| Q12M | 2.6 |
| Q12L | 3.15 |
| Q12E | 3.39 |
| Q12A | 3.29 |
| F11D | 2.62 |
| F11C | 2.29 |
| F11Y | 1.79 |
| F11N | 2.97 |
| F11L | 2.74 |
| L21Q | 2.64 |
| L21D | 3.61 |
| L21A | 1.45 |
| L21F | 2.81 |
| L21S | 3.45 |
| L21K | 3.7 |
| L21E | 2.55 |
| A14Y | 4 |
| A14E | 1.9 |
| A14T | 2.73 |

| Variant | protein stability index |
| --- | --- |
| A14P | 2.29 |
| A14H | 3 |
| A14F | 2.76 |
| A14D | 4 |
| L7G | 4.01 |
| L7P | 2.79 |
| L7T | 3.83 |
| L7F | 1.87 |
| L7Q | 3.37 |
| L7N | 3.78 |
| I4A | 3.22 |
| A24Y | 2.61 |
| A24L | 3.17 |
| A24C | 3.39 |
| A24D | 4.05 |
| F6V | 2.74 |
| A19H | 1.58 |
| A19I | 2.14 |
| A19K | 2.76 |
| A19M | 3.22 |
| I5L | 1.46 |
| I5N | 2.28 |
| I5K | 2.92 |

Variants of: B2
Experiment: as above
Conditions: c terminus: a fixed tail appended

| Variant | protein stability index |
| --- | --- |
| W10Y | 3.14 |
| W10S | 4.2 |
| W10G | 3.97 |
| W10F | 3.26 |
| W10L | 3.06 |
| A19D | 4.11 |
| A19R | 3.59 |
| A19G | 3.22 |
| R22D | 3.61 |
| R22E | 3.39 |
| G1K | 2.91 |
| F17M | 3.52 |
| F17D | 4.82 |
| F17R | 3.83 |
| F17C | 3.33 |
| M23C | 3.74 |
| M23T | 3.38 |
| S6I | 2.75 |
| S6G | 2.55 |
| S6K | 2.12 |
| S6N | 2.8 |
| T4K | 2.13 |
| T4N | 3.07 |

| Variant | protein stability index |
| --- | --- |
| E18W | 1.85 |
| E18L | 2.41 |
| E18N | 2.47 |
| E2T | 3.33 |
| E2V | 3.94 |
| E2N | 2.77 |
| E2M | 2.91 |
| P8C | 2.27 |
| P8F | 2.36 |
| P8L | 2.6 |
| I12R | 3.12 |
| I12P | 3.72 |
| I12H | 3.75 |
| L20N | 4.89 |
| L20M | 3.64 |
| L20S | 5.12 |
| G3Y | 3.63 |
| G3V | 3.41 |
| E14S | 2.94 |
| E14H | 3.09 |
| E14N | 2.96 |
| E14V | 2.29 |
| Q15R | 2.59 |

| Variant | protein stability index |
| --- | --- |
| M21D | 4.41 |
| M21P | 4.2 |
| M21A | 3.35 |
| M21R | 3.18 |
| M21I | 2.99 |
| L24K | 4.67 |
| E16P | 2.61 |
| E16I | 1.31 |
| P7Y | 2.14 |
| P7T | 2.23 |
| G13Q | 3.58 |
| G13F | 2.69 |
| G13K | 3.21 |
| G13Y | 2.66 |
| G5C | 2.86 |
| G5N | 3.28 |
| G5K | 2.15 |
| G5M | 2.4 |
| G5V | 3.09 |
| K9E | 3.82 |
| K9N | 3.53 |
| K9T | 2.95 |
| Q11N | 3.53 |
